Data set [1] deals with T1, C/EBP (C/EBPalpha) (Rattus norvegicus, UniProt P05554 P05554:1-358). Description: EMSA; text cites SEQ ID NO:41, Table 3 lists AlbD as SEQ ID NO:47. The settings on record: tags: E. coli pT7-7, about 40 kDa; chain copies: 2; label: 32P. In general terms: In EMSA bound probe runs differently from free probe, usually more slowly.
In data set [2] the target is T1, C/EBP (C/EBPalpha). The data set can be described thus: EMSA. The settings on record: tags: E. coli pT7-7, about 40 kDa, chain copies: 2.
Data set [3] deals with T1, C/EBP (C/EBPalpha). The data set can be described thus: EMSA; C/EBP-BA3 complex. The settings on record: tags: E. coli pT7-7, about 40 kDa; chain copies: 2; label: 32P.

Experimental findings from patent publication US5877009, “Isolated ApoA-I gene regulatory sequence elements” (Trustees of Boston University) are described below.

T1 sequence (P05554 whole entry, one chain of several): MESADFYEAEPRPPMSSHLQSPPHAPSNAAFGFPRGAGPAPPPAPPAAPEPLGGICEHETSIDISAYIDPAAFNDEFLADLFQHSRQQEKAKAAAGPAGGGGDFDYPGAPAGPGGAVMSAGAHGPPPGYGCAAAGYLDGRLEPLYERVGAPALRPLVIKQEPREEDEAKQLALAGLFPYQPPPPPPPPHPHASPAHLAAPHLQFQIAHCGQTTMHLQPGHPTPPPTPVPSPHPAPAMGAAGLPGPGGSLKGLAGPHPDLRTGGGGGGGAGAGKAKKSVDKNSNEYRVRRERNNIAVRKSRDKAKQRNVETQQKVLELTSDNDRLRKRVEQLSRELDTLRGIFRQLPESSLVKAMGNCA

B1: Albumin D C/EBP site (AlbD, -115 to -90) (dsDNA)
DNA 1: TGGTATGATTTTGTAATGGGGTAGGA
DNA 2: TCCTACCCCATTACAAAATCATACCA
On to B1, for which the binding result in the data set with C/EBP (C/EBPalpha) [1] was “binds”.

B2: apoA-II element K (-760 to -743) (dsDNA)
DNA 1: TAAGGTGATCAAATGACC
DNA 2: GGTCATTTGATCACCTTA
Turning to B2, the binding result in the data set with C/EBP (C/EBPalpha) [2] was “no binding”.

B3: CIIIB(WT) apoCIII -92 to -67 (dsDNA)
DNA 1: GGTCAGCAGGTGACCTTTGCCCAGCG
DNA 2: CGCTGGGCAAAGGTCACCTGCTGACC
Turning to B3, the binding result with C/EBP (C/EBPalpha) [2] (label: 32P, GGG/CCC 5' overhangs) was “no binding”.

B4: BA3 apoB -78 to -48 (dsDNA)
DNA 1: GCCCTTTGGACCTTTTGCAATCCTGGCGCT
DNA 2: AGCGCCAGGATTGCAAAAGGTCCAAAGGGC
Turning to B4, the binding result with C/EBP (C/EBPalpha) [3] is listed as “binds”.
